Measurements: US20240092916A1 (Astellas, published 2024)

Columns and labels:
Assay in all cases: ELISA, antigen immobilized at 1 µg/mL, detection with anti-human kappa-HRP
[1] = biological target: T1, ActRIIA-His (LifeSpan Biosciences, LS-G39063) (Homo sapiens (Human), UniProt P27037 20-135)
T1 construct: Bought reagent
Experimental: (§1) The binding activities of the humanized 75E9STF8-1 obtained in Example 4 to ActRIIA, ActRIIB, and Fn14 were evaluated. ActRIIA-His (LifeSpan Biosciences, LS-G39063), ActRIIB-His (LifeSpan Biosciences, LS-G38834), and the human Fc fusion proteins including the extracellular domain of human Fn14 prepared in Example 3 were each diluted to 1 μg/mL with phosphate-buffered physiological saline (PBS), each added to a Maxisorp 384-well transparent plate (Nunc, 464718) at 15 μL/well, and incubated at 4° C. overnight for immobilization. On the next day, the solid phase liquid was removed and washing was performed with a 0.05% Tween-20-containing Tris-buffered physiological saline (TBS-T). Thereafter, PBS including 20% Blocking One (Nacalai tesque, Inc., 03953-95) was added thereto at 50 μL/well, and the mixture was left to stand at room temperature for 1 hour and then washed with TBS-T. Dilution series of humanized 75E9STF8-1 were prepared by dilution in 12 steps at a 4-fold common ratio from the maximum concentration of 30 μg/mL, and added at 20 μL/well. TBS-T including 5% Blocking One was used as a diluent. After incubation for 1 hour at room temperature, washing was performed with TBS-T. As a detection antibody, Goat Anti-Human Kappa, Mouse ads-HRP (SouthernBiotech, 2061-05) which had been 4,000-fold diluted with a diluent (TBS-T including 5% Blocking One) was added at 20 μL/well. After incubating at room temperature for 1.5 hours, the cells were washed with TBS-T, TMB+Substrate-Chromogen (DAKO, S159985) was added thereto, the mixture was left to stand, 1 M sulfuric acid was added thereto to stop the reaction, and the absorbance at 450 nm was measured with Infinite (registered trademark) 200 Pro (TECAN).

[2] = biological target: T2, ActRIIB-His (LifeSpan Biosciences, LS-G38834) (Homo sapiens (Human), UniProt Q13705 19-137)
T2 construct: Bought reagent
T2 sequence: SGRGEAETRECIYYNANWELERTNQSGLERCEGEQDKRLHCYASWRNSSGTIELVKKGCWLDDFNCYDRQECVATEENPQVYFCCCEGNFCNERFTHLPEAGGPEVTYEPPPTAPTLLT
Experimental: as §1

[3] = biological target: T3, human Fc fusion protein including the extracellular domain of human Fn14 (human, UniProt Q9NP84 28-80)
T3 construct: extracellular domain; not shown: human Fc
T3 sequence (looked up): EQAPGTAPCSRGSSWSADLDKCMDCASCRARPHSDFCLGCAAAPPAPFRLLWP
Experimental: as §1

T1 sequence (P27037 20-135 limits assumed, form in doubt, one chain of several): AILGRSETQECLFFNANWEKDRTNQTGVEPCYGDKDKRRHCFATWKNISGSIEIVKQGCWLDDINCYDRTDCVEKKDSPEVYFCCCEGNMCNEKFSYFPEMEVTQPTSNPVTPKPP

EC50 [1]: 5.03 ng/mL | EC50 [2]: 9.24 ng/mL | EC50 [3]: 23.3 ng/mL
B1: humanized 75E9STF8-1 (bispecific antibody, human IgG1, kappa, L234A L235A)
heavy: EVQLVESGGGLVQPGGSLRLSCAASRSIFAYGTMAWYRQAPGKGRELVATISGGGTTSYSDSVKGRFTISRDNGKSTVYLQMNSLRAEDTAVYYCNKRSIGTNDFWGQGTLVTVSSGGGGSGGGGSGGGGSGGGGSGGGGSEVQLVESGGGLVQPGGSLRLSCAASGFTLTTNALIWGRQAPGAAPGKGPEWVAGIRADGRPYYGDSMKGRVTISRDIAKNTAYLQMNSLRPEDTAVYFCATRLDDSGTYDRGRGTTVTVSSGGGGSGGGGSEVQLVESGGGLVKPGGSLRLSCAASGITFSTYGMNWVRQAPGKGLEWVSSISSRSIHISYADSVKGRFTISRDNAKNSLYLQMSSLRADDTAVYYCARDRGAAAFDYWGRGTLVAVSSASTKGPSVFPLAPSSKSTSGGTAALGCLVKDYFPEPVTVSWNSGALTSGVHTFPAVLQSSGLYSLSSVVTVPSSSLGTQTYICNVNHKPSNTKVDKKVEPKSCDKTHTCPPCPAPEAAGGPSVFLFPPKPKDTLYITREPEVTCVVVDVSHEDPEVKFNWYVDGVEVHNAKTKPREEQYNSTYRVVSVLTVLHQDWLNGKEYKCKVSNKALPAPIEKTISKAKGQPREPQVYTLPPSRDELTKNQVSLTCLVKGFYPSDIAVEWESNGQPENNYKTTPPVLDSDGSFFLYSKLTVDKSRWQQGNVFSCSVMHEALHNHYTQKSLSLSPGK
light: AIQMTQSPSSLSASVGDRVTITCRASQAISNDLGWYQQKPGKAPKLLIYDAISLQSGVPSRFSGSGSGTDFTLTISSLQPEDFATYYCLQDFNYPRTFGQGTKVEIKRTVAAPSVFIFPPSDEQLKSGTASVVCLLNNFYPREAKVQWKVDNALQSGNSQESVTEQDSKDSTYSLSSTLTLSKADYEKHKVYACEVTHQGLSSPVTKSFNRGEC
notes: Expressed in CHO-K1SV cells
